US20260274955A1 (JANUX THERAPEUTICS, published 2026)

Target: T1, Anti-CD28 Fab (SEQ ID NOs: 202, 203)
T1 construct: biotinylated and captured on neutravidin coated plates in the phage ELISA
Assay: phage binding ELISA, Fab on plate;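 note: clonal phage supernatant ELISA, wells preincubated with CD28 antigen or blocking buffer only, then bound phage detected using HRP-linked anti-M13 antibody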

T1 sequence (VH, as listed by the source, chain 1 of 2): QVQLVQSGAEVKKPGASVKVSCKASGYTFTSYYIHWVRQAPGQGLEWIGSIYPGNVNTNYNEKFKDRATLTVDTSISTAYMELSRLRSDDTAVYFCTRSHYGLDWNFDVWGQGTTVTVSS
T1 sequence (VL, as listed by the source, chain 2 of 2): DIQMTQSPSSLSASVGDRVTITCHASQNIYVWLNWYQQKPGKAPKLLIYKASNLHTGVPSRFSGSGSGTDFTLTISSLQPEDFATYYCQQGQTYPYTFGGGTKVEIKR

| Binder | Anti-CD28 Fab (SEQ ID NOs: 202, 203) signal |
| --- | --- |
| TCAAGAAWEWPICF [Phage-1091] | 1.54 |
| TCSAGATYVWPDCF [Phage-1095] | 1.52 |
| TCAAGAMWNWPQCY [Phage-1092] | 1.54 |
| SCKAGAPYYWPGCF [Phage-1088] | 1.54 |
| TCAAGATWDWPLCF [Phage-1099] | 1.51 |
| LCAEGFDYSWPMCL [Phage-1086] | 1.55 |
| TCEAVFIYSWPFCL [Phage-1096] | 1.52 |
| TCSAGATYSWPFCF [Phage-1087] | 1.55 |
| LCAEGADYPWPMCL [Phage-1098] | 1.51 |
| TCSAVFSYTWSNCF [Phage-1089] | 1.54 |
| SCSAGAMYPWPMCL [Phage-1093] | 1.53 |
| TCAAGASWEWPLCF [Phage-1094] | 1.52 |
| SCSAGAAWPWPWCL [Phage-1085] | 1.55 |
| MCTAGATYPWPACL [Phage-1084] | 1.56 |

Target: T2, anti-CD28 Fab (SEQ ID NOs: 202, 203)
T2 construct: biotinylated and captured on neutravidin coated plates in the phage ELISA
T2 sequence (VH, as listed by the source, chain 1 of 2): as the sequence (VH, as listed by the source, chain 1 of 2) above
T2 sequence (VL, as listed by the source, chain 2 of 2): as the sequence (VL, as listed by the source, chain 2 of 2) above
Assay: phage binding ELISA on captured biotinylated Fab;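 note: clonal phage supernatants added to wells preincubated with CD28 antigen or blocking buffer only, bound phage detected by ELISA with horseradish-conjugated anti-M13 antibody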
Procedure: After panning, phage infected bacteria were plated out and colonies picked into 96 well blocks. Clonal phage was then amplified and separated from bacterial cells via centrifugation.
Clonal phage were harvested as crude supernatants and screened via standard ELISAs. […] Prior to the addition of clonal phage, wells were incubated with blocking buffer and CD28 antigen or blocking buffer alone. Without washing or aspirating, clonal phage supernatants were then added to the wells and incubated for a short time. Wells were then washed followed by detection of bound phage using a horse radish conjugated anti-M13 antibody. Clonal phage of interest were then sent for sequence analysis.

| Binder | Anti-CD28 Fab (SEQ ID NOs: 202, 203) signal |
| --- | --- |
| LCAAGATYPWPLCL [Phage-894] | 2.39 |
| LCAAGATYPWPTCL [Phage-897] | 1.71 |
| MCAAGATYPWPACL [Phage-914] | 2.3 |
| LCAAGATYPWPFCL [Phage-919] | 2.28 |
| YWYCSPSIVRCVLV [Phage-15] | 1.51 |
| YWSCFQIPFTCFYF [Phage-1] | 1.44 |
| YCAGHMPQYEVKCL [Phage-21] | 0.22 |
| GCQYPWAFDAMSCP [Phage-6] | 2.38 |
| DCWWMFESYPGRCI [Phage-12] | 1.65 |
| ECHWSMWAVGHACF [Phage-9] | 1.77 |
| WECLKYTEANACTY [Phage-2] | 1.55 |
| TCAAGAAWGWPLCF [Phage-893] | 2.3 |
| YCMGHSHEHIWKCL [Phage-23] | 0.87 |
| LCAAGASWPWPVCL [Phage-888] | 2.16 |
| ACDTYFAGMINECF [Phage-5] | 0.92 |
| TCAAGATWSWPACF [Phage-892] | 2.23 |
| YCAGHAWQYINKCL [Phage-13] | 0.64 |

| Binder | Anti-CD28 Fab (SEQ ID NOs: 202, 203) signal |
| --- | --- |
| SCAAGASYAWPYCL [Phage-18] | 1.49 |
| DCPWLSGFSRPLLC [Phage-19] | 1.27 |
| PDCQTILFKPWCVR [Phage-4] | 2.09 |
| PDCHTILFKPWCVR [Phage-16] | 1 |
| TCAAGAAWPWPQCL [Phage-890] | 2.23 |
| WICDKSGSIMLCRA [Phage-17] | 0.91 |
| WCWDYKLWVPTQCP [Phage-7] | 2.27 |
| YCAGHSPINIGKCL [Phage-10] | 1.49 |
| FMCLPQNPHPLCFK [Phage-3] | 0.84 |
| YCAGHTEEHYVKCM [Phage-22] | 0.62 |
| WCWDYKLWVPMTCP [Phage-11] | 2.51 |
| TCSAGATYTWPKCF [Phage-891] | 1.87 |
| TCSEGATYTWPWCF [Phage-954] | 2.05 |
| WCWDYREWVPMTCP [Phage-8] | 2.3 |
| WCWYYREWVPMTCP [Phage-14] | 1.85 |
| YCAGHSHEYLAKCE [Phage-24] | 0.86 |
| YCAGMSTIQLWLKC [Phage-20] | 2.16 |
